# Test results as given in paper PMC10258763, “Atomic model for core modifying region of human fatty acid synthase in complex with Denifanstat” (Nature Communications, 2023).
# B1: isolated modifying region of hFASN expressed and purified as an independent construct (G855 to G2511) (domain or fragment, human, UniProt P49327 855-2511, looked up)
# chain: GSPSAAIYNIDTSSESPDHYLVDHTLDGRVLFPATGYLSIVWKTLARALGLGVEQLPVVFEDVVLHQATILPKTGTVSLEVRLLEASRAFEVSENGNLVVSGKVYQWDDPDPRLFDHPESPTPNPTEPLFLAQAEVYKELRLRGYDYGPHFQGILEASLEGDSGRLLWKDNWVSFMDTMLQMSILGSAKHGLYLPTRVTAIHIDPATHRQKLYTLQDKAQVADVVVSRWLRVTVAGGVHISGLHTESAPRRQQEQQVPILEKFCFTPHTEEGCLSERAALQEELQLCKGLVQALQTKVTQQGLKMVVPGLDGAQIPRDPSQQELPRLLSAACRLQLNGNLQLELAQVLAQERPKLPEDPLLSGLLDSPALKACLDTAVENMPSLKMKVVEVLAGHGHLYSRIPGLLSPHPLLQLSYTATDRHPQALEAAQAELQQHDVAQGQWDPADPAPSALGSADLLVCNCAVAALGDPASALSNMVAALREGGFLLLHTLLRGHPLGDIVAFLTSTEPQYGQGILSQDAWESLFSRVSLRLVGLKKSFYGSTLFLCRRPTPQDSPIFLPVDDTSFRWVESLKGILADEDSSRPVWLKAINCATSGVVGLVNCLRREPGGNRLRCVLLSNLSSTSHVPEVDPGSAELQKVLQGDLVMNVYRDGAWGAFRHFLLEEDKPEEPTAHAFVSTLTRGDLSSIRWVCSSLRHAQPTCPGAQLCTVYYASLNFRDIMLATGKLSPDAIPGKWTSQDSLLGMEFSGRDASGKRVMGLVPAKGLATSVLLSPDFLWDVPSNWTLEEAASVPVVYSTAYYALVVRGRVRPGETLLIHSGSGGVGQAAIAIALSLGCRVFTTVGSAEKRAYLQARFPQLDSTSFANSRDTSFEQHVLWHTGGKGVDLVLNSLAEEKLQASVRCLATHGRFLEIGKFDLSQNHPLGMAIFLKNVTFHGVLLDAFFNESSADWREVWALVQAGIRDGVVRPLKCTVFHGAQVEDAFRYMAQGKHIGKVVVQVLAEEPEAVLKGAKPKLMSAISKTFCPAHKSYIIAGGLGGFGLELAQWLIQRGVQKLVLTSRSGIRTGYQAKQVRRWRRQGVQVQVSTSNISSLEGARGLIAEAAQLGPVGGVFNLAVVLRDGLLENQTPEFFQDVCKPKYSGTLNLDRVTREACPELDYFVVFSSVSCGRGNAGQSNYGFANSAMERICEKRRHEGLPGLAVQWGAIGDVGILVETMSTNDTIVSGTLPQRMASCLEVLDLFLNQPHMVLSSFVLAEKAAAYRDRDSQRDLVEAVAHILGIRDLAAVNLDSSLADLGLDSLMSVEVRQTLERELNLVLSVREVRQLTLRKLQELSSKADEASELACPTPKEDGLAQQQTQLNLRSLLVNPEGPTLMRLNSVQSSERPLFLVHPIEGSTTVFHSLASRLSIPTYGLQCTRAAPLDSIHSLAAYYIDCIRQVQPEGPYRVAGYSYGACVAFEMCSQLQAQQSPAPTHNSLFLFDGSPTYVLAYTQSYRAKLTPGCEAEAETEAICFFVQQFTDMEHNRVLEALLPLKGLEERVAAAVDLIIKSHQGLDRQELSFAARSFYYKLRAAEQYTPKAKYHGNVMLLRAKTGGAYGEDLGADYNLSQVCDGKVSVHVIEGDHRTLLEGSGLESIISIIHSSLAEPRVSVREG
# notes: human fatty acid synthase (FASN), residues G855 to G2511, modifying region (DH, ΨME, ΨKR, ER, KR, ACP, TE); also called truncated modifying region; truncated hFASN modifying region; source: HEK293F, transfected (pcDNA3.1, gene synthesized by GenScript), purified (Ni-NTA, Superdex 200)
# Target: the molecule itself
# Experiment: SEC + other: cryo-EM 2D class averages; truncated modifying region purified by Ni-NTA and Superdex 200 increase 10/300; 2D classes of elution fraction 3
protein,measurement,value
B1,stoichiometry N,2
